The record followed here is publication PMC2034099, “Preparation and preclinical evaluation of humanised A33 immunoconjugates for radioimmunotherapy” (British Journal of Cancer, 1995).

This assay addresses T1, A33 antigen (Homo sapiens, endogenous on SW1222 and …, UniProt Q99795).
T1 construct: A33 antigen on human colorectal tumour cell lines; also called the antigen recognised by A33; source: endogenous, on SW1222 and Colo205 human colorectal tumour cells
The experiment in a line: flow cytometry on cells; Scatchard analysis: FITC-labelled antibodies titrated on 2.8 x 10^5 SW1222 cells, 2 h on ice, 350 ul PBS with 5% FCS and 0.1% sodium azide; fluorescence per cell calibrated with standard beads; linear regression. The following applies: one partner purified.

T1 sequence (Q99795 22-319): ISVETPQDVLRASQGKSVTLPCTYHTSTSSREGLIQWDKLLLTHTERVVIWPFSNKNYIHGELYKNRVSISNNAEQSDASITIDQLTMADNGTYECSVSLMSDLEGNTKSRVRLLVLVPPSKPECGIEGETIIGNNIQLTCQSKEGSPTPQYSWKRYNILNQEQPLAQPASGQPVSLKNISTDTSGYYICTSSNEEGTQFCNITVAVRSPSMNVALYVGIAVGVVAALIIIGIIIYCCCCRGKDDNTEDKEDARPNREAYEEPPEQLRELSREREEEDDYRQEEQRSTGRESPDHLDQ

B1: murine A33 IgG (antibody, V domains shown)
VH: EVKLVESGGGLVKPGGSLKLSCAASGFAFSTYDMSWVRQTPEKRLEWVATISSGGSYTYYLDSVKGRFTISRDSARNTLYLQMSSLRSEDTALYYCAPTTVVPFAYWGQGTLVTVSA
VL: DIVMTQSQKFMSTSVGDRVSITCKASQNVRTVVAWYQQKPGQSPKTLIYLASNRHTGVPDRFTGSGSGTDFTLTISNVQSEDLADYFCLQHWSYPLTFGSGTKLEVK
notes: the scan text reads CAPr at Kabat 92-96, restored to CAPTT from the hA33 line (94-102 are said to be murine); mouse gamma-2a heavy chain constant region ('the murine y-2a of the parent antibody'); mouse light chain constant region; IgG2a; also called mA33; mouse A33; copies: 2 + 2
B1 showed a Kd of 1.28 nM.
